# Measurements published in patent US7314724B2, “Therapeutic applications of laminin and laminin-derived protein fragments” (University of Washington, priority 1996, dated 2008).
# Columns and labels:
# biotinylated Aβ (1-40) = target: T1, biotinylated Aβ (1-40) (Homo sapiens, UniProt P05067); experiment: Aβ ligand blot of undigested and V8-, trypsin- or elastase-digested EHS laminin; type: binding; conditions: 2 μM biotinylated Aβ (1-40), SDS-PAGE under non-reducing conditions
# T1 construct: Aβ (1-40) was biotinylated according to the manufacturer's protocol (Pierce, Rockford, Ill.)
# T1 sequence (P05067 672-711 limits assumed): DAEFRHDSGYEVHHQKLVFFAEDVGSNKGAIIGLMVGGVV
# Protocol: For these experiments, Aβ (1-40) was biotinylated according to the manufacturer's protocol (Pierce, Rockford, Ill.). For the ligand studies, intact EHS laminin was left undigested, or digested with V8 or trypsin (Sigma Chemical Company, St. Louis, Mo., USA). More specifically, 2 μg of trypsin or V8 protease in 2 μl of 50 MM Tris-HCl buffer (pH 8.0) were added to 50 μl of laminin (50 μg)(in the same buffer) and incubated overnight at 37° C. The next day, 10 μl of protease-digested laminin (or undigested laminin) was mixed with 10 μl of 2× sodium dodecyl sulfate polyacrylamide gel electrophoresis (SDS-PAGE) sample buffer, and heated for 5 minutes in a boiling water bath. SDS-PAGE was performed according to the method of Laemmli (Laemmli, U.K. Nature 227:680-685, 1970), or according to the method of Schägger and Jagow (Schägger and Jagow, Anal. Biochem. 166:368-379, 1987) using a Mini-Protean II electrophoresis system (Biorad) with precast 4-15% Tris-Glycine or 10-20% tricine polyacrylamide gels, respectively, and under non-reducing conditions. Electrophoresis occurred at 200V for 45 minutes along with pre-stained molecular weight standards. After SDS-PAGE (10-20% tricine or 4-15% Tris-Glycine gels) was performed as described above, the separated laminin and its fragments (total protein of 10 μg/lane) were transferred to polyvinylidine difluoride membrane (PVDF) using a Mini transblot electrophoresis transfer cell (Biorad, Hercules, Calif., U.S.A.). Electrotransfer was performed at 100V for 2 hours. Following transfer, membranes were rinsed with methanol and dried. The fragment(s) of laminin involved in binding to Aβ were then detected by using biotinylated-Aβ (1-40), as described above. Blots were probed for 2 hours with 2 μM biotinylated Aβ (1-40) in TTBS. The membranes were then rinsed three times (10 seconds each) with TTBS, probed for 30 minutes with strepavidin alkaline phosphatase conjugate (Vectastain), rinsed again (as described above), and followed by the addition of an alkaline phosphatase substrate solution (Vectastain). Following color development, the reaction was stopped by flushing the membranes with double distilled water. In the next set of studies, we determined whether small fragment(s) of laminin generated by elastase digestion would bind to Aβ. […] For these experiments, Aβ (1-40) was biotinylated according to the manufacturer's protocol (Pierce, Rockford, Ill.). For the ligand studies, intact EHS laminin was left undigested, or digested with elastase (Sigma Chemical Company, St. Louis, Mo., USA). For elastase digestion, 2 μg of elastase in 8 μl of 50 mM Tris-HCl buffer (pH 8.0) was added to 50 μl of laminin (50 μg)(in the same buffer) and incubated for 1.5 hours or 2.5 hours at 37° C. In addition, as a control, 2 μg of elastase in 50 μl of 50 mM Tris-HCl buffer (pH 8.0) was incubated for 2.5 hours at 37° C. Following the appropriate incubation times as described above, 10 μl of each of the above incubations were mixed with 10 μl of 2× SDS-PAGE electrophoresis sample buffer, and heated for 5 minutes in a boiling water bath. SDS-PAGE was performed according to the method of Laemmli (Laemmli, Nature 227:680-685, 1970) using a Mini-Protean II electrophoresis system with precast 4-15% Tris-Glycine polyacrylamide gels, and under non-reducing conditions. Electrophoresis occurred at 200V for 45 minutes along with pre-stained molecular weight standards (Biorad). After SDS-PAGE was performed as described above, the separated laminin fragments were transferred to PVDF using a Mini transblot electrophoresis transfer cell (Millipore, Bedford, Mass., U.S.A.). Electrotransfer was performed at 100V for 2 hours. Following transfer, membranes were rinsed with methanol, dried and cut into two equal parts which were used for Aβ ligand blotting, or Coomassie blue staining and subsequent amino acid sequencing. The fragment(s) of laminin involved in binding to Aβ were then detected by using biotinylated-Aβ (1-40), as described above. […]
# [1] = target: T2, pre-formed Aβ (1-40) amyloid fibrils (Homo sapiens, UniProt P05067); experiment: Thioflavin T fluorometry, dissolution of pre-formed Aβ (1-40) amyloid fibrils; type: biochemical; conditions: for dissolution of pre-formed Aβ amyloid fibrils: 25 μM fibrillized Aβ, 4 day incubation; for dose dependence of dissolution of pre-formed Aβ amyloid fibrils, in words: 16-125 nM laminin, 4 day incubation (FIG. 5)
# T2 construct: 2 μg of Aβ (1-40)(Bachem Inc., Torrance, Calif. USA; Lot #WM365); purchased Bachem Inc., Torrance, Calif; Lot #WM365
# T2 sequence (P05067 672-711 limits assumed): as above
# Protocol: For this study, 1 mg of Aβ (1-40)(Bachem Inc., Torrance, Calif., USA; Lot #WM365) was dissolved in 1.0 ml of double distilled water (1 mg/ml solution) and then incubated at 37° C. for 1 week. 25 μM of fibrillized Aβ was then incubated at 37° C. in the presence or absence of laminin (from EHS tumor; Sigma Chemical Company, St. Louis, Mo., USA) at concentrations of 125 nM, 63 nM, 31 nM and 16 nM containing 150 mM Tris HCl, 10 mM NaCl, pH 7.0. Following a 4 day incubation, 50 μl aliquots were added to 1.2 ml of 100 μM Thioflavin T (Sigma Chemical Co., St. Louis, Mo.) in 50 mM NaPO4 (pH 6.0) for fluorometry readings as described in example 2.
substance,measurement,setting,value
"laminin: Engelbreth-Holm-Swarm (EHS) mouse tumor laminin (Sigma); 850 kDa basement membrane glycoprotein of A, B1 and B2 chains","interaction with biotinylated Aβ (1-40) on ligand blot, in words",biotinylated Aβ (1-40),most prominent Aβ-interaction
same,dissolution of pre-formed Aβ amyloid fibrils,[1]; 16 nM laminin,25%
same,dissolution of pre-formed Aβ amyloid fibrils,[1]; 31 nM laminin,28%
same,dissolution of pre-formed Aβ amyloid fibrils,[1]; 63 nM laminin,39%
same,dissolution of pre-formed Aβ amyloid fibrils,[1]; 125 nM laminin,41%
same,"dose dependence of dissolution of pre-formed Aβ amyloid fibrils, in words",[1],dissolution of pre-formed Alzheimer's disease amyloid fibrils in a dose-dependent manner
same,"dose dependence of dissolution of pre-formed Aβ amyloid fibrils, in words",[1]; listed as Laminin,dose-dependent manner
